We go through three molecules from patent publication US20030147885A1 (IDEC PHARMACEUTICALS, published 2003).

The target of experiment [1] is human B lymphocyte-restricted differentiation antigen Bp35 (CD20) (human) (UniProt P11836). Kind of experiment: radioimmunoassay: hybridoma medium against 10 ng I-125 labeled anti-CD20 Bl on 100,000 SB cells.
Experiment [2] has the same target. Kind of experiment: direct binding of I-125 radiolabeled antibody to CD20 positive B cells, Scatchard plot; printed as apparent affinity constant (Kap).
Experiment [3] concerns the target T1, human B lymphocyte-restricted differentiation antigen Bp35 (CD20) (human, UniProt P11836 1-297).
T1 construct: whole, on cells; Presented on SB cells, other CD20 positive B cell lines or acetone-fixed human tissues; also called CD20 antigen; CD20 surface antigen
T1 sequence (looked up): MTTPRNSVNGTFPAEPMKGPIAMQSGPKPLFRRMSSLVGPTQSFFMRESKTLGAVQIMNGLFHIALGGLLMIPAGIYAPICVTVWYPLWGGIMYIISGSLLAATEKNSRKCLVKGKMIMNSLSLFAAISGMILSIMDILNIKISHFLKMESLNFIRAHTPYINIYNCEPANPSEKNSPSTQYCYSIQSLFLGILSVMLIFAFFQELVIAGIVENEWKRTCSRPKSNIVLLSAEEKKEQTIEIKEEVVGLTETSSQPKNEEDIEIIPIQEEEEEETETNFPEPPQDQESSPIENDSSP
The description is as above.

“murine anti-CD20 monoclonal antibody 2B8” yielded a % inhibition of I-125 labeled anti-CD20 Bl binding in experiment [1] of 50%. The Kd in experiment [2] was found to be 3.5 nM.

B1: chimeric anti-CD20 antibody produced by the CHO transfectoma (antibody, V domains shown)
VH: QVQLQQPGAELVKPGASVKMSCKASGYTFTSYNMHWVKQTPGRGLEWIGAIYPGNGDTSYNQKFKGKATLTADKSSSTAYMQLSSLTSEDSAVYYCARSTYYGGDWYFNVWGAGTTVTVSA
VL: QIVLSQSPAILSASPGEKVTMTCRASSSVSYIHWFQQKPGSSPKPWIYATSNLASGVPVRFSGSGSGTSYSLTISRVEAEDAATYYCQQWTSNPPTFGGGTKLEIK
notes: domain: heavy chain gamma 1 constant region (Kabat numbering amino acids 114-478); also called C2B8; CHO produced chimeric anti-CD20; not shown: human immunoglobulin light chain kappa constant region, Kabat numbering amino acids 108-214, allotype Km 3
As to B1, the Kd in experiment [3] was found to be 5.2 nM.

B2: chimeric anti-CD20 antibody produced by the SP2/0 transfectoma (antibody, V domains shown)
VH: B1 VH
VL: B1 VL
notes: domain: heavy chain gamma 1 constant region (Kabat numbering amino acids 114-478); Same construct as m2, but produced in SP2/0 mouse myeloma cells; also called SP2/0 produced antibody; not shown: human immunoglobulin light chain kappa constant region, Kabat numbering amino acids 108-214, allotype Km 3
B2: the Kd in experiment [3] turned out to be 7.4 nM.
